Results published in patent US20110239311A1, “Agonists of NR2F6 For Immunosupression” (Medizinische Universitat Innsbruck, priority 2008, published 2011).

T1: NR2F6-ER (UniProt P10588+P19785, G525R)
T1 construct: expressed in transfected cells; host or cells: Jurkat T cells (transient electroporation)
T1 sequence (P10588+P19785 with tags, fused parts or gaps P19785:G525R): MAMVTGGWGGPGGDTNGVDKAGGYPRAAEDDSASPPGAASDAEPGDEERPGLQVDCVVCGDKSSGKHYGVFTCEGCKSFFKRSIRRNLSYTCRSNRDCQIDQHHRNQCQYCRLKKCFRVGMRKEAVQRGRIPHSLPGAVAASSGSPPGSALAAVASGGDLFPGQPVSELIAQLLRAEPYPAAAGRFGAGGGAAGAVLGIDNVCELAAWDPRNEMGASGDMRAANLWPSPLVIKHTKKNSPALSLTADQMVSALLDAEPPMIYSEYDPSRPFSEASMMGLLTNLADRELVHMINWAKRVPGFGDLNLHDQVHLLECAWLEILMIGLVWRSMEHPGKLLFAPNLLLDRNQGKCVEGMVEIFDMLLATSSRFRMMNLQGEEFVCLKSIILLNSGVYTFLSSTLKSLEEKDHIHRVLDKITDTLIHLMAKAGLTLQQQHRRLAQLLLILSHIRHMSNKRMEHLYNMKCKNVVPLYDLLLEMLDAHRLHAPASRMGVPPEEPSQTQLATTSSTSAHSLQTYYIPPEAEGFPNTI

T2: NR2F6 (Homo sapiens, UniProt P10588)
T2 construct: expressed in transfected cells; host or cells: Jurkat T cells (transient electroporation)
T2 sequence (P10588 1-404): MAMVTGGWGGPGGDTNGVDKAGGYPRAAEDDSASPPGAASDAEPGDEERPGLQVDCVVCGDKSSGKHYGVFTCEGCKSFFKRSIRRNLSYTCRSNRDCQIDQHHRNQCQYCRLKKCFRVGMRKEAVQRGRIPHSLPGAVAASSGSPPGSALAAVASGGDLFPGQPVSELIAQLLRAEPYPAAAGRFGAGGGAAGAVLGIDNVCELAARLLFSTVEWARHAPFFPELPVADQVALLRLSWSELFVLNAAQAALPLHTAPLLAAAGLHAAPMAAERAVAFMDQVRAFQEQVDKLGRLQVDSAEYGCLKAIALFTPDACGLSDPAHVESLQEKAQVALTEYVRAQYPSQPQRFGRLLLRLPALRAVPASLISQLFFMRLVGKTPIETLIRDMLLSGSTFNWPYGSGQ


Assays:
NR2F6-ER = target: T1, NR2F6-ER; assay: NF-AT/AP-1 promoter luciferase reporter assay in NR2F6-ER transfected Jurkat T cells; format: cell-based, human; conditions: transiently transfected Jurkat T cells
Procedure: Jurkat T cells were maintained in RPMI medium supplemented with 10% FCS (Life Technologies, Inc.). Transient transfection of cells was performed by electroporation in a BTX-T820 ElectroSquarePorator (ITC, Biotech, Heidelberg, Germany) apparatus using predetermined optimal conditions: 2×10^7 cells at 450 V/cm and 5 pulses of 99 msec. Optimix medium (Equibio, Kent, UK) was used for studies of promoter reporter gene expression. Reporter gene expression was measured in co-transfection assays using 15 μg of the NR2F6 wild-type or mutant expression vectors and 15 μg of the AP-1/NF-AT promoter firefly luciferase reporter (RLU1). For normalization 0.3 μg of the renilla luciferase reporter vector pTK-Renilla-Luc (Promega, Medison, Wi) (RLU2) has been used.

CD4+ T cells = assay: IL-2 secretion of transfected CD4+ T cells upon CD3 plus CD28 stimulation; format: cell-based, mouse; conditions: vs control transfection
Procedure: CD4+ T cells were negatively selected by magnetic cell sorting (Miltenyi Biotec). T cell populations were typically 95% CD4+, as determined by staining and flow cytometry. Cells were resuspended in solution from Nucleofactor mouse T cell kit and program X-01 following the Amaxa guidelines for cell-line transfection. In brief, up to 1×10^7 cells were mixed with 1.5 μM of synthetic ON-TARGETpIus siRNA predesigned by Dharmacon (i.e., order code 045088) as pool (see SEQ ID NOs: 19 to 26) or ON-TARGETplussiCONTROL nontargeting pool were nucleofected with the Amaxy Nucleofactor apparatus and immediately transferred into 37° C. prewarmed culture medium and cultured for a minimum of 24 hours before experimental analysis; see also FIG. 16.
Analysis of cytokine production: Cytokine production of mouse CD4^+ T cells after Th17 polarizing stimulation was assessed via the BioPlex technology (BioRad) according to manufacturer's instructions.

[1] = test system: IL-17A promoter:luciferase reporter; assay: IL-17A promoter:luciferase reporter transrepression assay in Jurkat cells; format: cell-based, human; conditions: transient overexpression in Jurkat cells
Procedure: (§1) Jurkat-TAg cells (a kind gift from Dr. Crabtree, Stanford University, CA) have been transiently transfected with circular plasmid DNA by electroporation (BTX-T820 ElectroSquarePorator™, ITC, Biotech, Heidelberg, Germany), using predetermined optimal conditions (1×10^7 cells in 200 μl RPMI medium at 450 V/cm and 5 pulses of 99 msec), yielding approx. 40% transfection efficiency. NF-AT:AP-1 reporter gene expression was measured in transient cotransfection assays using 10 μg pSRα-CD28, 15 μg of the GFP or Nr2f6 expression vectors and 15 μg of the promoter firefly luciferase reporter (RLU1). The latter were a NF-AT:AP-1 composite site reporter (Macian et al., 2001), a NF-AT reporter construct containing three tandem copies of the NF-AT minimal consensus sequence and the proximal IL-17A promoter reporter (Liu et al., 2004). The proximal IL-17A promoter is also described elsewhere herein. After 21 h cells were stimulated with solid-phase CD3 and CD28 agonistic antibodies for 16 h or left unstimulated, as indicated and the firefly luciferase was measured employing the luciferase detection kit (Promega, Madison, Wis.) and the βJet-Luminometer (WALLAC, Turku, Finland).

[2] = test system: NFAT/AP-1 promoter:luciferase reporter; assay: NFAT/AP-1 promoter:luciferase reporter transrepression assay in Jurkat cells; format: cell-based, human; conditions: transient overexpression in Jurkat cells
Procedure: as §1

NR2F6 = target: T2, NR2F6; assay: RARE containing renilla luciferase reporter assay in NR2F6 transfected Jurkat T cells; format: cell-based; conditions: CD3/CD28 with or without RA 20 microM
Procedure: Jurkat T cells were maintained in RPMI medium supplemented with 10% FCS (Life Technologies, Inc.). Transient transfection of cells was performed by electroporation in a BTX-T820 ElectroSquarePorator (ITC, Biotech, Heidelberg, Germany) apparatus using predetermined optimal conditions: 2×10^7 cells at 450 V/cm and 5 pulses of 99 msec. Optimix medium (Equibio, Kent, UK) was used for studies of promoter reporter gene expression. Reporter gene expression was measured in co-transfection assays using 15 μg of the NR2F6 wild type or mutant expression vectors and 5 μg of the RARE containing renilla luciferase reporter vector pTK-Renilla-Luc (Promega, Medison, Wi). After 24 hrs cells were stimulated with solid phase CD3 and CD28 antibodies with or without retinoic acid (RA at 20 microM) for 16 hrs, as indicated.

Row | Molecule | CD3/CD28-induced NF-AT/AP-1 composite element-dependent reporter (NR2F6-ER) | IL-2 cytokine secretion (CD4+ T cells) | trans-repression of CD3/CD28 activation-induced IL-17A promoter:luciferase reporter [1] | trans-repression of CD3/CD28 activation-induced NFAT/AP-1 promoter:luciferase reporter [2] | transcriptional repressor activity (RARE reporter) (NR2F6)
1 | NR2F6-ER: conditionally activated NR2F6 estrogen-receptor ligand binding domain mutant (ERmut-LBD) fusion protein, SEQ ID NO: 10 (protein, /note=“Description of artificial sequence amino acid sequence of NR2F6 wild-type Er-LBD fusion mutant”) MAMVTGGWGGPGGDTNGVDKAGGYPRAAEDDSASPPGAASDAEPGDEERPGLQVDCVVCGDKSSGKHYGVFTCEGCKSFFKRSIRRNLSYTCRSNRDCQIDQHHRNQCQYCRLKKCFRVGMRKEAVQRGRIPHSLPGAVAASSGSPPGSALAAVASGGDLFPGQPVSELIAQLLRAEPYPAAAGRFGAGGGAAGAVLGIDNVCELAWDPRNEMGASGDMRAANLWPSPLVIKHTKKNSPALSLTADQMVSALLDAEPPMIYSEYDPSRPFSEASMMGLLTNLADRELVHMINWAKRVPGFGDLNLHDQVHLLECAWLEILMIGLVWRSMEHPGKLLFAPNLLLDRNQGKCVEGMVEIFDMLLATSSRFRMMNLQGEEFVCLKSIILLNSGVYTFLSSTLKSLEEKDHIHRVLDKITDTLIHLMAKAGLTLQQQHRRLAQLLLILSHIRHMSNKGMEHLYNMKCKNVVPLYDLLLEMLDAHRLHAPASRMGVPPEEPSQTQLATTSSTSAHSLQTYYIPPEAEGFPNTI | repressed | – | – | – | –
2 | NR2F6: recombinant overexpressed nuclear receptor subfamily 2, group F, member 6 (Ear2), SEQ ID NO: 2 (protein, listed as Homo sapiens) MAMVTGGWGGPGGDTNGVDKAGGYPRAAEDDSASPPGAASDAEPGDEERPGLQVDCVVCGDKSSGKHYGVFTCEGCKSFFKRSIRRNLSYTCRSNRDCQIDQHHRNQCQYCRLKKCFRVGMRKEAVQRGRIPHSLPGAVAASSGSPPGSALAAVASGGDLFPGQPVSELIAQLLRAEPYPAAAGRFGAGGGAAGAVLGIDNVCELAARLLFSTVEWARHAPFFPELPVADQVALLRLSWSELFVLNAAQAALPLHTAPLLAAAGLHAAPMAAERAVAFMDQVRAFQEQVDKLGRLQVDSAEYGCLKAIALFTPDACGLSDPAHVESLQEKAQVALTEYVRAQYPSQPQRFGRLLLRLPALRAVPASLISQLFFMRLVGKTPIETLIRDMLLSGSTFNWPYGSGQ | – | significantly suppresses IL-2 secretion responses | robust and reproducible trans-repression | robust and reproducible trans-repression | –
3 | NR2F2 wild type: the closest relative of NR2F6, used as control (protein, UniProt P24468 1-414, looked up) COUP transcription factor 2: MAMVVSTWRDPQDEVPGSQGSQASQAPPVPGPPPGAPHTPQTPGQGGPASTPAQTAAGGQGGPGGPGSDKQQQQQHIECVVCGDKSSGKHYGQFTCEGCKSFFKRSVRRNLSYTCRANRNCPIDQHHRNQCQYCRLKKCLKVGMRREAVQRGRMPPTQPTHGQFALTNGDPLNCHSYLSGYISLLLRAEPYPTSRFGSQCMQPNNIMGIENICELAARMLFSAVEWARNIPFFPDLQITDQVALLRLTWSELFVLNAAQCSMPLHVAPLLAAAGLHASPMSADRVVAFMDHIRIFQEQVEKLKALHVDSAEYSCLKAIVLFTSDACGLSDVAHVESLQEKSQCALEEYVRSQYPNQPTRFGKLLLRLPSLRTVSSSVIEQLFFVRLVGKTPIETLIRDMLLSGSSFNWPYMAIQ | – | – | not able to suppress | not able to suppress | –
4 | S83E: S83E mutant of NR2F6, Ser-83 phospho-mimic, DNA-binding deficient, SEQ ID NO: 8 (protein, listed as Homo sapiens, VARIANT (83)..(83) S83E mutation) MAMVTGGWGGPGGDTNGVDKAGGYPRAAEDDSASPPGAASDAEPGDEERPGLQVDCVVCGDKSSGKHYGVFTCEGCKSFFKREIRRNLSYTCRSNRDCQIDQHHRNQCQYCRLKKCFRVGMRKEAVQRGRIPHSLPGAVAASSGSPPGSALAAVASGGDLFPGQPVSELIAQLLRAEPYPAAAGRFGAGGGAAGAVLGIDNVCELAARLLFSTVEWARHAPFFPELPVADQVALLRLSWSELFVLNAAQAALPLHTAPLLAAAGLHAAPMAAERAVAFMDQVRAFQEQVDKLGRLQVDSAEYGCLKAIALFTPDACGLSDPAHVESLQEKAQVALTEYVRAQYPSQPQRFGRLLLRLPALRAVPASLISQLFFMRLVGKTPIETLIRDMLLSGSTFNWPYGSGQ | – | – | not able to suppress | not able to suppress | lost its transcriptional repressor activity
5 | C112S: C112S zinc finger mutant of NR2F6, defective in DNA binding, SEQ ID NOs: 30 and 31 (protein, /note=“Description of artificial sequence amino acid sequence of C112S mutated NR2F6”) MAMVTGGWGGPGGDTNGVDKAGGYPRAAEDDSASPPGAASDAEPGDEERPGLQVDCVVCGDKSSGKHYGVFTCEGCKSFFKRSIRRNLSYTCRSNRDCQIDQHHRNQCQYSRLKKCFRVGMRKEAVQRGRIPHSLPGAVAASSGSPPGSALAAVASGGDLFPGQPVSELIAQLLRAEPYPAAAGRFGAGGGAAGAVLGIDNVCELAARLLFSTVEWARHAPFFPELPVADQVALLRLSWSELFVLNAAQAALPLHTAPLLAAAGLHAAPMAAERAVAFMDQVRAFQEQVDKLGRLQVDSAEYGCLKAIALFTPDACGLSDPAHVESLQEKAQVALTEYVRAQYPSQPQRFGRLLLRLPALRAVPASLISQLFFMRLVGKTPIETLIRDMLLSGSTFNWPYGSGQ | – | – | lost its transcriptional repressor activity | lost its transcriptional repressor activity | lost its transcriptional repressor activity
